Reference: the nanobody polyreactivity screen of Harvey et al. (2022)

Experiment: yeast display, Sf9 membrane polyspecificity reagent, FACS + sequencing; frameworks hold sequencing errors
In short: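 Genes from sorted yeast were amplified by colony PCR, read by MiSeq 2 × 250 sequencing and filtered on CDR length. These cells carried a synthetic nanobody library in Saccharomyces cerevisiae BJ5465 and were sorted by FACS into low and high (top ~1%) gates on anti-HA and streptavidin fluorescence. Polyreactivity is labelled according to the gate of origin.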

Row | Sequence | polyreactivity (PSR sort gate)
1 | QVQLVESGGGLVQAGGSLRLSCAASGSIIQVYAMGWYRQATGKERELVASITRTGGSTYYADSVKGRFTISRDNAKNTVYLLMNSLKPEDTAVYYCAAEKRYYYYVKYWKSDYWGQGTQVTVSS | low polyreactivity
2 | QVQVVESGGGLVQAGGSLSLSCAASGGIFHSNAMGWYRQAPGKERELVAAISWNTGSTYYADSVKGRFTISRDNAKQTVYLQMNSLKPEDTAVYYCAASYRSPWLRYDYWGQGTQVTVSS | high polyreactivity
3 | QVQLVESGGGLVHAGGSLSLSCAASGYTFPLYAMGRYRQAPGKERELVADNNIGGASTYYADSVKGRFTISRDNAKNTVYLQMNSLKPEDTAVYYCAKEDYDGYFPTFDYDYWGQGTQVTVSS | low polyreactivity
4 | HVQLVESGGGLVQAGGILRLSCAASGSTFVKYAMGWYRQATGKERELVAAISSRGGRTYYADSVKGRFTISRDNAKNTVYLQMNSLKPEDTAVYYCNKGTRLDGEYDYWGQGTQVTVSS | high polyreactivity
5 | QVQHVESVGGLDQAGRSLRLSCAASGSTFTPYAMGWYRQAPGKESELVAGITGNGGSTRYADSVKGRFTISRDNAKKTVYLQMNSLKPEDTAVYYCAARWTRQRYRTSYYSWGQGTQVTVSS | high polyreactivity
6 | QVQLVESGGGLVQAGGSLRLSCAASGRTFPGNAMGWYRQAPGKERELVAAITSSGSTNYADSVKGRFTISRDNAKNTVYLQMNSLKPEDTAVYYCNAAWFYVYGVWILDWGQGTQVTVSS | low polyreactivity
7 | QVQLVESWGGLFQAGGRLRLSSAASGFTFPRYAMGWYRHSPGKERELVAAISRGGSTNYADSVKGRFTISRDNAMNTVYLQMNSLKPEVTAVYYCNVRLEYRYYRGDYWGQGTQVTVSS | high polyreactivity
8 | QVQLVESGGGLVQAGGSLRLSCAASGRTFWAYAMGWYRQAPGKERELVAAITASGTRTYYADSVKGRFTISRDNAKNTVYLQMNSLKPEDTAVYYCAAERIWWAHAYPTYVANDYWGQGTQVTVSS | high polyreactivity
9 | QLQLVESGGGLVQAGGSLRLSCAASGSIFFGNVMGWYRQAPGKERELVAAINTDGRTYYADSVKGRFTISRDNAKNTVYLQMNSLKPEDTAVYYCAARKGYRYYYWGQGTQVTVSS | high polyreactivity
10 | QVQLVESGGGLVQAGGSLRLSCAASGSTFGTYAMGWYRQAPGKERELVASIDNSTSGTYYADSVKGRFTISRDNAKNTVYLQMNSLKPEDTAVYYCAATPLVDGSSIPREGDYWGQGTQVTVSS | low polyreactivity
11 | QVQLVESGGGLVQAGGSLRLSCAASGLTFANYVMGWYRQAPGKEREMVAAISRSGGSTYYADSVKGRFTISRDNAKYTVYLQMNSLKPEDTAVYYCAAAAWDPKGSRYDYWGQGTQVTVSS | low polyreactivity
12 | QVQLVESGGGLVQAGGSLRLSCAASGFTFSPNAMGWYRQAPGKERELVAAITTTGGSTHYADSVKRRFTISRDHAKNTVYLQMHSLKQEDTAVYYCAADWYFEYPTAFHYEYWGQGTQVTVSS | high polyreactivity
13 | QVQLVESGGGLVQAGGSLRLSSASSGFIFRGNAMVWSRQAPGKERELVAAISWSGGNTYYADSVKGRFTISRDYAKNTVYLQMNSMIPEDTAVYYCNGVKAYYRWFLPRYQYNFWGQGTQVTVSS | high polyreactivity
14 | QVQLVDSGRGLVQAGGSLRLSCAASGFTVGVNAMGWDRQAPGKERELVAAITRSGGTTYYADSVQGRFTISRDKAKNTVYLQMNSLKPEDTAVYYCNRRARSYADDYWGQGTQVTVSS | high polyreactivity
15 | QVQLVESVGGLVQAGGSLLLSCAASGGIFWVYAMGWYRQAPGKERELVAAISNSDTSTSYADSVKGRFTISRDNAKNTVFLQMNSLKPEDTAVYYCNADSPSLSGDYWGQGTQVTVSS | low polyreactivity
16 | QVQLVESGGGLVQAGGSLRLSCAASGFTFRLNAMGWYRQAPGKEREMVAAISSSGGRTYYADSVKGRFTISRDNAKNTVYLQLNSLKPEDTAVYYCAADYTTRYLDGVVARGYYWGQGTQVTVSS | high polyreactivity
17 | QVQLVESGGGLVQAGGSLRLSCAASGFIYSAYAMGWYRQAPGKERELVAAISYSGGTTYYADSVKGRFTISRDNAKNTVYLQMNSLKPEDTAVYYCAAGVGYWGQGTQVTVSS | high polyreactivity
18 | QVQLVESGGGLVQAGGSLRLICAASGFTFYNYAKGWYRQAPGKERQLVAAISTSGGSTYYADSVKGRFTISRDNAKNTVYLQMNSLKPEDTAVYYCAAQATAYSYAYYYWGQGTQVTVSS | low polyreactivity
19 | QVQLVESGGGLVQAGGSLRLSCAASGSTLYFNAMGWYRQAPGKERELVATITSGGSTYYADSVKGRFTISRDNAKNTVYFQMNSLKPEDTAAYYCNADFGSYATNGLTPLYDYWGQGTQVTVSS | high polyreactivity
20 | QVQLVESGGGLVQAGGSLRLSCAASGSIFGYYAMGWYRQAPGKERELVAAISYSGGSTYYADSVKGRFTISRDNAKNTVYVQMNSLKPEDTAVYYCAARYASTPYARFGYWGQGSQVTVSS | high polyreactivity
21 | QVQLVESGGGLVQAGGSLRLSCAPSGSIFHYNAMGWYRQAPGKEREFVAVISKSSGSTFYADSVKGRFTISRDNAKNTVYLLMISLKPEDTAVYYCNRVTKRYPNIGNYWGQGTQVSVSS | high polyreactivity
22 | QVQLVESGGGIVQAGGSLRLSCAASGRTFRGNAMGWSRQAPVKERELVATIRRPGGSTYYADSVKGRFTISRDNAKNTVYLQMNSLKPEDTAVYYCNALNYYLYDKTFDYWGQGTKVTVSS | high polyreactivity

Row | Sequence | polyreactivity (PSR sort gate)
23 | QVQLEESGGGLVQAGGSLRISCAASGRIFRKYTMGWYRQAPGKERELVAAITGTGGSTYYADSVKGRFTISRDNAKNTVYLQMNSLKPVVTAVYYCAADYSARYGYWGQGTQVTVSS | high polyreactivity
24 | QVQLVESGGGLVQAGGSLRLSCAASGFTFYGYTMGWYRQAPGKERELVAAINKSGSSTYYADSEKGRFTISRDNAKNTVYLQMNSLKPEDTAVYYCNAYYRKVLGYDKMDYWGQGTQVTVSS | high polyreactivity
25 | QVQLVESGGGLVQAGGSLRLSCAASGITFVGNAMGWYRQAPGKERELVAAITSSGSTHYADSVKGRFTISRDNAKNTVYLQMNSLKPEDTAVYYCAAVTRFSGGLYYYWGQGTQVTVSS | high polyreactivity
26 | QVQLVESGGGLVQAGGSLRLSCAASGSTIDWYGMGWYRQAPGKERELVAAINFSDGSTYYADSVKGRFTISRDNAKNTVYLQMNSLKPEDTAVYYCAAFTPSYGGRDYWGQGTQVTVSS | low polyreactivity
27 | QVQLVESGGGLVQAGGSLRLSCAASGSTLTWNDMGWYRPAPGKERELVAAIDVNDGSTYYADSVKGRFTISRDNAKNTVYLQMNSLKPEDTAVYYCAEPTDYTWLDSTLADDYWGQGTQVTVSS | low polyreactivity
28 | QVQLVESGGGLVQAGGSLRLSCAASGRIFPEYAMGWYRQAPGKERELVAAISSGDNTTYADSVKGRFTISRDNAKNTVYLQMNSLIPEDTAVYYCNAGSCTTGQGGPIIEYGYWGQGTQVTVSS | low polyreactivity
29 | QVQLVESGGGLVQAGGSLRLSCAASGRTIGAYAMGWYRQAPGKEREFVAAITFGGGPTYYADSVKGRFTISRDNAKNTVYLQMNSLKPEDTAVYYCAKRIDLSLPYARYDYWGQVTQVTVSS | low polyreactivity
30 | QVQLVESGGGLVQAGGSLRLSCAASGRTLGIYAMGWYRQAPGKERELVADISRDSSTYYADSVKGRFTISRDNAKNTVYLQKNSLKPEDTAVYYCNADQTPRDVTDWWYDYDYWGQGSQVTVSS | low polyreactivity
31 | QVQLVESGGGLVQAGGSLRLSCAASGLIFPYNAMGWYRQAPGKERELVAAIDSGVTTYYADSVKGRFTISRDNAKNTVYLQMNSLKPEDTAVYFCAADGLPGPEGDSWGQGTQVSVSS | low polyreactivity
32 | QVQLVETGGGLVQAGGSLRLSCAASGSIFLKYAMGWYRQAPGKERELVAAISWSGGRTYYADSVKGRFTISRDNAKNTVYLQMNSLIPEDTAVYYCAAAGRVNNGYRGYGYWGQGTQVTVSS | high polyreactivity
33 | QVQLVESGGGLVQAGGSLRISCAASGSTFGDYTMGWYRQAHGKERELVAAITLTGGSTFYADSVKGRFTISRDNAKNTVYLQMNSLKPVDTAVYYCNTDVIRWVGGTWHRYYYWGQGTQVTVSS | low polyreactivity
34 | QVQLVESGGGLVQAGGSLRLSCAASGRTFTVYAMGWYRQAPGKERELVAAISSGGITYYADSVKGRFTISRDNAKNTVYLQMNSLKPEDTAVYYCNTKSGKARYVFGYWGQGTQVTVSS | low polyreactivity
35 | QVQLVESGGGLVQAGGSLRLSCAASGRTIYYNGMGWDRQAPGKERELVAAITSGGTTSYADSVKGRFTISRDNAKNTVYLQMNSLKPEDTAVYYCARVTDGVVYEYDYWGQGTQVTVSS | low polyreactivity
36 | QVQLVESGGGLVQAGGSLRLSCAASGSTFRSYAMGWYRPAPGTERELVAAISYSGDSTYYADSVTGRFTISRDIAKNTVFLQMKRLKPVDTAVYYCAALRDWDIQGEPWKRYGYWGQGTQVTVSS | low polyreactivity
37 | QVQLVESGGGLVQAGGSLRLSCAASGSTFISNAMGWYRQAPGKEREFVAAITSSGGSTYYADSVKGRFTISRDNAKNSVYLQMNSLKPEDSAVYYCARDVWSPDYLYDYWGQGTQVTVSS | low polyreactivity
38 | QVQLVESGGGLVQAGGSLRLSCAASGRIITINAMGWYRQAPGKERELVAAITGSAASTYYADSVKGRFTISRDNAKNTVYLQMNILKPEDTAVYYCAVDRRPYSGHGYDYWGQGTQVTVSS | high polyreactivity
39 | QVQLVESGGGFVQAGGSLRLSCAASGRTFPRYAMGWYRQAPGKERELVAAITRGGGTNYADSVKGRFTISRDNAKNTVYLQMNSLKPEDTAVYYCNRALLYRGYKFDYWGQGTHVTVSS | high polyreactivity
40 | QVQLVESGGGLVQAGGSLRLSCAASGRILPGYAMGWYRQAPGKERELVAAIRGNGDSTYYADSVKGRFTISRDNAKNTVYLQMNSLKPEDTAVYFCAARRVSTIARDSYRGRKYGYWGQGTQVTVSS | low polyreactivity
41 | QVQLVESGGGLVQAGGSLRLSCAASGSTIEFNAMGWYRPAPGKERELVAAISGSGASTYYADSVKGRFTISRDNAKNTVYLQMNSLTPEVTAVYYCNADSLYYDYQTVDVQALDYWGQATQVTVSS | low polyreactivity
42 | QVQLVESGGGLVQAGGSLRLSCAASGRTFFKYAMGWYRQAPGKERELVAAITGRGGSTYADSVKGRFTISRDNAKNTVYLQMNSLKPEDTAVYYCAKVYQRGAQYYYYKYDYWGQGTQVTVSS | high polyreactivity
43 | QVQLVESGGGLVQAGGSLRLSCAASGSILDGNAMGWYIQAPGKERELVAAISWNGARTYYADSVKGRFTISRDNAKNTVYLQMNSLKPEDTAVFYCAARRGSGKFGKYRGVDYWGQVTQVTVSS | high polyreactivity
